According to publication PMC11910319, “Inhibition of L-threonine dehydrogenase from Trypanosoma cruzi reduces glycine and acetate production and interferes with parasite growth and viability” (The Journal of Biological Chemistry, 2024):

Legend:
[1] = molecular target: T1, T. cruzi L-threonine dehydrogenase (TcTDH) (Trypanosoma cruzi, UniProt Q4CU39); assay: recombinant enzyme, diaphorase/resazurin coupled fluorescence assay; Ki by direct NADH fluorescence (Ki-Thr […], Ki-NAD+[…]); format: biochemical
T1 construct: gene Tc00.1047053507923.10; recombinant TcTDH, codon-optimized gene in pET28a, His-tag purified
T1 sequence (Q4CU39 1-332): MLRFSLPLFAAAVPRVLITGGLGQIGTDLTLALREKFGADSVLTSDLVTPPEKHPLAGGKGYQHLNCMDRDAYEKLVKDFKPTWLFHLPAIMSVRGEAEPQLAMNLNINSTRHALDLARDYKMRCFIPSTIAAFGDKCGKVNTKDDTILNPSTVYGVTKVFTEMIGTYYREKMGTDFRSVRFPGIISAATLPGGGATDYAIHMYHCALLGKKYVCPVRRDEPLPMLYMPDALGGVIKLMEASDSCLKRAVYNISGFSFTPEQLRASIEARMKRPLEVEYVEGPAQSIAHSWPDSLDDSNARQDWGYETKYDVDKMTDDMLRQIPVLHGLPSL

[2] = molecular target: Trypanosoma cruzi L-threonine dehydrogenase (TcTDH), recombinant wild type (Trypanosoma cruzi (CL Brener Esmeraldo-like strain)); assay: SEC; data not shown; quaternary structure in solution
[3] = substrate: C[C@@H](O)[C@H](N)C(=O)O; assay: purified protein; format: biochemical, Trypanosoma cruzi; details: NAD+; K+ ([…] KCl)

CCOc1ccc(NC(=O)/C=C/c2ccc(CC)o2)cc1 [TCMDC-143160]
IC50 [1]: 3.5 µM

Trypanosoma cruzi L-threonine dehydrogenase (TcTDH), recombinant wild type (enzyme)
stoichiometry N [2]: 2

B1: T. cruzi L-threonine dehydrogenase (TcTDH) (Trypanosoma cruzi strain CL Brener) (protein)
chain: MLRFSLPLFAAAVPRVLITGGLGQIGTDLTLALREKFGADSVLTSDLVTPPEKHPLAGGKGYQHLNCMDRDAYEKLVKDFKPTWLFHLPAIMSVRGEAEPQLAMNLNINSTRHALDLARDYKMRCFIPSTIAAFGDKCGKVNTKDDTILNPSTVYGVTKVFTEMIGTYYREKMGTDFRSVRFPGIISAATLPGGGATDYAIHMYHCALLGKKYVCPVRRDEPLPMLYMPDALGGVIKLMEASDSCLKRAVYNISGFSFTPEQLRASIEARMKRPLEVEYVEGPAQSIAHSWPDSLDDSNARQDWGYETKYDVDKMTDDMLRQIPVLHGLPSL
notes: recombinant TcTDH
Km [3]: 6.6 mM
